Measured values reported in patent publication US20240228604A1 (ALCHEMAB THERAPEUTICS, published 2024).
One block for each binder: values may come before it.

Experiments:
[1] = target: T1, UNC5C recombinant human antigen, Fc-tagged (R&D Systems, #1005-UN) (human, UniProt O95185 41-380, limits assumed); assay: ELISA, antigen down
T1 construct: Bought protein; also called rhUNC5C; not shown: Fc tag of the bought protein

[2] = target: T2, Recombinant rat UNC5C (N-terminal His and FLAG tag), in-house production from HEK293F cells (rat, UniProt Q761X5 41-380); assay: direct ELISA
T2 construct: also called rat UNC5C (inhouse antigen); rat antigen
Method: (§1) The plate was washed with PBS. Plates were blocked with 200 μl/well of blocking solution (1% BSA w/v in PBS) for 1 hour at room temperature. Following this, the blocking solution was removed and antibodies to be assessed were diluted in dilution series (1 μM to 0.05 nM) in blocking solution (1% BSA w/v in PBS) and applied to the plate. Plates were incubated at room temperature for 1 hour. The plate was washed with PBS/0.1% Tween. […] The plate was washed with PBS/0.1% Tween and TMB solution (Life Technology; #002023) added. Plates were incubated for 5 minutes at room temperature prior to the addition of stopping solution (0.5M sulphuric acid). Absorbance was read on Molecular Devices FilterMaxF5 plate reader at 450 nm. Analysis was performed using a non-linear fit curve fitting algorithm on GraphPad prism and EC50 calculated.
(§2) To measure the binding potency of antibodies to UNC5C protein, antibodies were assessed in a direct ELISA format for binding to human UNC5C. In addition, a selection of these antibodies was also screened for binding to mouse, cyno, and rat UNC5C in a direct ELISA format.

[3] = target: T3, Recombinant cyno UNC5C (N-terminal His and FLAG tag), in-house production from HEK293F cells (cyno, UniProt O95185 41-380 (human entry), limits assumed); assay: direct ELISA
T3 construct: also called cyno UNC5C (Inhouse antigen); cyno antigen
Method: as §1, §2

[4] = target: T4, mouse UNC5C in frozen C57BL/6 mouse brain sections (mouse, UniProt O08747 41-931); assay: immunofluorescence on frozen mouse brain sections, 10 µg/ml antibody
T4 construct: Native protein in fixed tissue sections; also called UNC5C in its natural central nervous system (CNS) context; mouse brain tissue

[5] = target: T5, Human Neogenin (R&D Systems catalogue number 8607-NE; BLI antigen) (Human, UniProt Q92859 34-1105); assay: BLI, antigen captured by His tag, antibody as analyte
T5 construct: extracellular domain; Bought protein; also called neogenin-1 ectodomain; NEO1
T5 sequence (looked up): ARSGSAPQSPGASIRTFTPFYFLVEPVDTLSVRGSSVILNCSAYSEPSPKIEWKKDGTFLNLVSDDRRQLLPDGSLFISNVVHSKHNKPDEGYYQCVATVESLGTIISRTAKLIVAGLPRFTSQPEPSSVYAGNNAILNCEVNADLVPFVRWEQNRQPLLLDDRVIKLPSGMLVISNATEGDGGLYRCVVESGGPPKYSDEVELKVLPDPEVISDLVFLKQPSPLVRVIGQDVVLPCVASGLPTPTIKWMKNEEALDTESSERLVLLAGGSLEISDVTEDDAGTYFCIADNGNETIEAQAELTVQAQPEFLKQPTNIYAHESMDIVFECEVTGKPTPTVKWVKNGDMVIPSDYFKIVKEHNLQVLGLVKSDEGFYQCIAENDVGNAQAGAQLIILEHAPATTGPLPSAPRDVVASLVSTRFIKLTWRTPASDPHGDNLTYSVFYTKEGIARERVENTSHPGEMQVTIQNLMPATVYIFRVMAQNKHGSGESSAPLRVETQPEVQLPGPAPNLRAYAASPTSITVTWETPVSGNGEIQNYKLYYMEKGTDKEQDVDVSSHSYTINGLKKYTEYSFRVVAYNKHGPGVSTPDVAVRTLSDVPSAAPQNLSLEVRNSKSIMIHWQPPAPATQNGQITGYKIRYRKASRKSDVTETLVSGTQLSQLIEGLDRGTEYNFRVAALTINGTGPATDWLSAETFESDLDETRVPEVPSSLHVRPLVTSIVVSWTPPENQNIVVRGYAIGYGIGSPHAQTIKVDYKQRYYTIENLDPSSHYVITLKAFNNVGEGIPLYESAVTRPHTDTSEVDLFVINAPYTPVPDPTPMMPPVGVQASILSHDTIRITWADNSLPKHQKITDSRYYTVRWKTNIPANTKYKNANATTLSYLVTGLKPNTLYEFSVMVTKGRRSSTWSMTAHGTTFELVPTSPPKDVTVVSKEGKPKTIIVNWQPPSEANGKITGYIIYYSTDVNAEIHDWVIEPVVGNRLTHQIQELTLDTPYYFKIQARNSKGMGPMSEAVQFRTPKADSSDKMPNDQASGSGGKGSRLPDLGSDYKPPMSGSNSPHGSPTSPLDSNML
Text: (§3) Antigen was loaded as ligand and dipped into antibody as analyte during association, and assay buffer during dissociation.
(§4) Purified recombinant antigens were purchased from a commercial supplier or prepared and purified in-house and details are shown in Table 2.

[6] = target: T6, Human recombinant UNC5B (BLI antigen) (Human, UniProt Q8IZJ1 27-377); assay: as above
T6 construct: also called UNC5B ectodomain
Text: as §3, §4

[7] = target: T7, Human recombinant DCC (BLI antigen) (Human, UniProt P43146 26-1097); assay: as above
T7 construct: also called Netrin receptor DCC ectodomain
Text: as §3, §4

[8] = target: T8, Human recombinant UNC5A (BLI antigen) (Human, UniProt Q6ZN44 26-306); assay: as above
T8 construct: Captured by His tag; also called UNC5A ectodomain
Text: as §3, §4

[9] = target: T9, Human recombinant UNC5D (BLI antigen) (Human, UniProt Q6UXZ4 33-379); assay: as above
T9 construct: also called UNC5D ectodomain
Text: as §3, §4

[10] = target: T10, rmUNC5C, in-house production from HEK293F cells (N-terminal His and FLAG tag + amino acids 41-380 of murine … (mouse, UniProt O08747 41-380)); assay: direct ELISA
T10 construct: extracellular domain; also called mouse UNC5C (Inhouse antigen); recombinant mouse UNC5C
Method: as §1, §2

[11] = target: T1, UNC5C recombinant human antigen, …; assay: direct ELISA
Method: as §1, §2

T2 sequence (Q761X5 other isoform, or with tags, fused parts or gaps limits assumed): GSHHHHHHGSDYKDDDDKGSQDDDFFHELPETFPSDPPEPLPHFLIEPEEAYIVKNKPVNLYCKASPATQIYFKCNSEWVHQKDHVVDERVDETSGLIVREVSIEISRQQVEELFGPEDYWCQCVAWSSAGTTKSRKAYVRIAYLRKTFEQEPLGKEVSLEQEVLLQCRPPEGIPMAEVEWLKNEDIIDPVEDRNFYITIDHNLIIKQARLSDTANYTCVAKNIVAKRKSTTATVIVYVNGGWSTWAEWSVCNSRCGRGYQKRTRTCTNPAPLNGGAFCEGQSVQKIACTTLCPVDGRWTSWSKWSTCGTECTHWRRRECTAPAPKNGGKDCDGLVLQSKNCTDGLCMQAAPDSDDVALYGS
T10 sequence (O08747 other isoform, or with tags, fused parts or gaps limits assumed): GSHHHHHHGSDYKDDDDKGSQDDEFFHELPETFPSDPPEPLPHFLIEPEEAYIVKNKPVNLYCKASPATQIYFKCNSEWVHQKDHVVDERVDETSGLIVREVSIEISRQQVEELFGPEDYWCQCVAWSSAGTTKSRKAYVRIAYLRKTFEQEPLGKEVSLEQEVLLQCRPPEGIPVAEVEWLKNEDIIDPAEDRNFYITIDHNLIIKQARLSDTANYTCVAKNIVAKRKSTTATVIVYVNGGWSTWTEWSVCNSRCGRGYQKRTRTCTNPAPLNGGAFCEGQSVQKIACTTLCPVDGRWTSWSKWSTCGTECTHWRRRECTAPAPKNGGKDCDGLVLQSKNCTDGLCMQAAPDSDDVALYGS
T1 sequence (O95185 41-380 limits assumed): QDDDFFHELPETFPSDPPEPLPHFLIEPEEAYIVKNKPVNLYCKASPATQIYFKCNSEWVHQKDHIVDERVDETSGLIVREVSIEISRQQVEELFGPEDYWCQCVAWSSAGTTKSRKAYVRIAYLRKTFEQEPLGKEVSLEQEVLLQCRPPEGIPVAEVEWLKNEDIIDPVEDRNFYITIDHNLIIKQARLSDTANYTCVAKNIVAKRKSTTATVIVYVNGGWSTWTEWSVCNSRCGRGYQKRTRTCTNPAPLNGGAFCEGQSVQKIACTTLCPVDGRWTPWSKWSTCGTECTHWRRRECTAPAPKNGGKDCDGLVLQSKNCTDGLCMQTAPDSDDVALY
T7 sequence (P43146 other isoform, or with tags, fused parts or gaps): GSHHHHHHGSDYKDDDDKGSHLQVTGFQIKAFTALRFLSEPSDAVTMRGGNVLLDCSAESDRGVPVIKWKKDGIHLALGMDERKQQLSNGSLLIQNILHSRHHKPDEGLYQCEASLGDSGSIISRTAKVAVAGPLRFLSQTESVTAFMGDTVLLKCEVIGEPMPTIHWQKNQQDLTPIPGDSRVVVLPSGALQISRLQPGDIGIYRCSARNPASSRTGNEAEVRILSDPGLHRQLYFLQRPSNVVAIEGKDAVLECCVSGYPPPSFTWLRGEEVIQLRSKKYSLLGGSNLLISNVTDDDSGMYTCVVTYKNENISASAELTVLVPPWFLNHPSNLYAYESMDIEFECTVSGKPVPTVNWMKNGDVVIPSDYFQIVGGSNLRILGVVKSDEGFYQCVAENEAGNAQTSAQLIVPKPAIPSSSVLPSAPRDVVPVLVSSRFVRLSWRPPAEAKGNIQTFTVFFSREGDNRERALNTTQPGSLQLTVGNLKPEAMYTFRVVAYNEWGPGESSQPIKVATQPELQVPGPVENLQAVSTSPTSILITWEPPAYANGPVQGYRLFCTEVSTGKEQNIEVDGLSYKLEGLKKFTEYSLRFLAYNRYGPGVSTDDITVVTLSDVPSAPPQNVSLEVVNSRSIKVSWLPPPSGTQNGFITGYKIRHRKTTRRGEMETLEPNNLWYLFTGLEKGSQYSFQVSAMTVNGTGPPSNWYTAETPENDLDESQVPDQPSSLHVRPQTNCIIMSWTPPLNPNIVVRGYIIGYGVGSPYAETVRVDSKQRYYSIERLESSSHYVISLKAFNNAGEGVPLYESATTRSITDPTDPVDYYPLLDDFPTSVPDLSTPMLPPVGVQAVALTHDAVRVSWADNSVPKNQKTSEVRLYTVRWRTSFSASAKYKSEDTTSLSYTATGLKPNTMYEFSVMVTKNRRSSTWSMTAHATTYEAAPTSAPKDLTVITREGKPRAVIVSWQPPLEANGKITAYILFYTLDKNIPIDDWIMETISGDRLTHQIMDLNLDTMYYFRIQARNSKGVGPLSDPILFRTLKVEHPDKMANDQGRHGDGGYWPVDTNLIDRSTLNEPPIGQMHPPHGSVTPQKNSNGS
T9 sequence (Q6UXZ4 other isoform, or with tags, fused parts or gaps): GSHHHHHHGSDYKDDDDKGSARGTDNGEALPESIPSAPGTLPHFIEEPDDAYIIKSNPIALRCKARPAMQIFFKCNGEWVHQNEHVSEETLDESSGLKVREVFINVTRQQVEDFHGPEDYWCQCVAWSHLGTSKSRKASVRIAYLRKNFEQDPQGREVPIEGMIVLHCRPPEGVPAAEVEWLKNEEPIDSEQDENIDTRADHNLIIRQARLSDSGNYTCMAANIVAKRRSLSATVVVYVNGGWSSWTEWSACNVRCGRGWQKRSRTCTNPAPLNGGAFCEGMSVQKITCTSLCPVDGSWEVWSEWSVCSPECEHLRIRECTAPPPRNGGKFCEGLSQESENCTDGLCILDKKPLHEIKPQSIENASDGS
T3 sequence (O95185 other isoform, or with tags, fused parts or gaps limits assumed): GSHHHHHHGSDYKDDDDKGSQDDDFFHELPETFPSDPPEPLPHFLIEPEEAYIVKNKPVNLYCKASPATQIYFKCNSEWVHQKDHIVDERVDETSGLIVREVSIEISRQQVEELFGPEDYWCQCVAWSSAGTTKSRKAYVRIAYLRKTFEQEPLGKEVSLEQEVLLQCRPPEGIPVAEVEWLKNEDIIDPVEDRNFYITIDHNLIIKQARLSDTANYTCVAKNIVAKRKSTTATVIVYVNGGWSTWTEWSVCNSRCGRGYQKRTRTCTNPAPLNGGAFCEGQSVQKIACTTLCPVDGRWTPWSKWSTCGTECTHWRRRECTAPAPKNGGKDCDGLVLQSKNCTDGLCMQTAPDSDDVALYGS
T4 sequence (O08747 41-931 limits assumed): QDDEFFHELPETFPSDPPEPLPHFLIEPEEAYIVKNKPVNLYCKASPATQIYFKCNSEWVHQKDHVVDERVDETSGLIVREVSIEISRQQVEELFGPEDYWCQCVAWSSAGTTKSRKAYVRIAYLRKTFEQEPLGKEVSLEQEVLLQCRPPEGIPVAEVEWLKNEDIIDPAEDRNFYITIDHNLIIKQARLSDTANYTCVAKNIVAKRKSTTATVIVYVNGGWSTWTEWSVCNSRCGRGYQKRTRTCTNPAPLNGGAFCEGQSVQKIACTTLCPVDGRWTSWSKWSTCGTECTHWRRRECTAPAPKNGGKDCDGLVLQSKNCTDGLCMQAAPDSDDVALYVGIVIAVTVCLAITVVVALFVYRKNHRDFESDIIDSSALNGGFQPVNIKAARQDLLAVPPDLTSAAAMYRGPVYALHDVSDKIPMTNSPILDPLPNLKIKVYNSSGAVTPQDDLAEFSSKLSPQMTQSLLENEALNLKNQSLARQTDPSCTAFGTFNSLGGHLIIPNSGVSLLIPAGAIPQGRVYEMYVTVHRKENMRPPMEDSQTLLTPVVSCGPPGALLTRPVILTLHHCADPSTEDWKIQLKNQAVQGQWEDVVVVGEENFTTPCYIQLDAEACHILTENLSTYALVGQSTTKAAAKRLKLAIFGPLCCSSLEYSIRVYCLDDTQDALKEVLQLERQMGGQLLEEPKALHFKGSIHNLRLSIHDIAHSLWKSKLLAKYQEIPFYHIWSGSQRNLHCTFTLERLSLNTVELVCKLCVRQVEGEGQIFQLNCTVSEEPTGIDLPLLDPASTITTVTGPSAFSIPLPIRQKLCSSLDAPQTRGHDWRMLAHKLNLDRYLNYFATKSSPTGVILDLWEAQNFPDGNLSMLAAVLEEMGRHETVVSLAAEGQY
T8 sequence (Q6ZN44 other isoform, or with tags, fused parts or gaps): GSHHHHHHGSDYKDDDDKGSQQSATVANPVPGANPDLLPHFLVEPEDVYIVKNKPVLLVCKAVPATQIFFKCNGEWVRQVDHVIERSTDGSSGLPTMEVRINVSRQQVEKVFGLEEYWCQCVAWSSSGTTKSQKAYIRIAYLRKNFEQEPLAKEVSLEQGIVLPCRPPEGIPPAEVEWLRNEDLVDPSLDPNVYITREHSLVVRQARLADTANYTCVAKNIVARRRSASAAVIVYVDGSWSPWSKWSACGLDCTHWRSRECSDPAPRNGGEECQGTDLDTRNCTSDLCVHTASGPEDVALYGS

EC50 [1]: 10 pM
B1: ATL_0006534 (antibody, V domains shown)
VH: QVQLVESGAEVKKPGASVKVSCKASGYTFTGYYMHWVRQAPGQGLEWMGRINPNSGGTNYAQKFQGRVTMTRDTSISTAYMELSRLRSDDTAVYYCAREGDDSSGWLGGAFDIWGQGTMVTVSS
VL: NFMLTQPHSVLESPGKTVTIPCTRSSGSIASNYVQWYQQRPGSAPTAVIFEDNVRPSGVPDRFSGSVDSSSNSASLTISGLKTEDEGDFYCQSYDSSGHVVFGGGTKVTVL
notes: also called ATL_6534; Y_0001393-001

binding result [2]: no binding (tested: <1 µM) | binding result [3]: no binding (tested: <1 µM)
B2: ATL_0005338 (antibody, V domains shown)
VH: EVKLDETGGGLVQPGRPMKLSCVASGFTFSDYWMNWVRQSPEKGLEWVAQIRNKPYNYETYYSDSVKGRFTISRDDSKSSVYLQMNNLRVEDMGIYYCTGSYYGMDYWGQGTSVTVSS
VL: DVVMTQTPLSLPVSLGDQASISCRSSQSLVNSNGNTYLRWYLQKPGQSPKVLIYKVSNRVSGVPDRFSGSGSGTDFTLKISRVEAEDLGVYFCSQSTHVPWTFGGGTKLEIK
notes: also called ATL_5338

binding result [4]: binds | binding result [5]: no binding (tested: up to 100 nM) | binding result [6]: no binding (tested: up to 100 nM) | binding result [7]: no binding (tested: up to 100 nM) | binding result [8]: no binding (tested: up to 100 nM) | binding result [9]: no binding (tested: up to 100 nM) | binding result [10]: binds | binding result [2]: binds
B3: ATL_0005262 (antibody, human IgG1, V domains shown)
VH: QVQLQESGPGLVKPSETLSLTCTVSGGSISSYFWTWIRQPPGKRLEWIGYIHNSGTTNQNPSLKSRVTISIDTSKNHFSLKLSSVTAADTAVYYCARGRGMATLPFDYWGQGTLVTVSS
VL: not shown
notes: also called ATL_5262; ATL5262

binding result [10]: binds | binding result [2]: binds
B4: ATL_0006191 (antibody, IgG1, V domains shown)
VH: QVQLQESGPGLVKPSETLSLTCTVSGGSIGSYFWSWIRQTPGKGLEWIGYIHYSGSSNYNPSLKSRVTISVDTFKNQFSLKLTSVTAADTAVYYCARGRGMATLPFDYWGQGTLVTVSS
VL: not shown
notes: ATL_5262 homologue VH paired with the VL of ATL_5262; also called ATL_6191; ATL6191

binding result [10]: binds | signal over lysozyme control (fold) [11]: ≥ 3 fold
B5: ATL_0006001 (antibody, IgG1, V domains shown)
VH: QVQLQESGPGLVKPSETLSLTCTVSGGSISSYFWTWIRQPPGKRLEWIGYIHNSGTTNQNPSLKSRVTISIDTSKNHFSLKLSSVTAADTAVYYCARGRGMATLPFDYWGQGTLVTVSS
VL: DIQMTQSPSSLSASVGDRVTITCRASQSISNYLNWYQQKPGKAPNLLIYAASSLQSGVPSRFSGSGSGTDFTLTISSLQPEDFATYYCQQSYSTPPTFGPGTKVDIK
notes: VL pairing variant of ATL_5262; also called ATL_6001

binding result [2]: binds
B6: ATL_0006039 (antibody, IgG1, V domains shown)
VH: QVQLQESGPGLVKPSETLSLTCTVSGGSISSYFWTWIRQPPGKRLEWIGYIHNSGTTNQNPSLKSRVTISIDKSKNHFSLKLSSVTAADTAVYYCARGRGMATLPFDYWGQGTLVTVSS
VL: not shown
notes: also called ATL_6039
